Consider 2 molecules from patent publication US5847082, “Terminal complement inhibitor fusion proteins” (Alexion Pharmaceuticals, Inc., dated 1998).

Read-outs that look alike come from different tables or passages of the source.

Experiment [1] concerns the target T1, purified human complement component C8 (human, UniProt P07357).
The target in experiment [2] is T2, purified human complement component C9 (human, UniProt P02748).
For experiment [3], the target named is T1, purified human complement component C8. Put plainly: cell-based or functional assay.
The target in experiment [4] is T2, purified human complement component C9. Put plainly: cell-based or functional assay.

On to “CD59-MCP TMTCIP (transmembrane form of CD59)”, for which the percent dye release (Calcein AM) after complement attack, Balb/3T3 cells in experiment [1] and in experiment [2] was 3 fold each time.

B1: native human CD59, GPI-anchored (other)
chain: LQCYNCPNPTADCKTAVNCSSDFDACLITKAGLQVYNKCWKFEHCNFNDVTTRLRENELTYYCCKKDLCNFNEQLENGGTSLSEKTVLLLVTPFLAAAWSLHP
modifications: glycosyl-phosphatidylinositol (GPI) anchor at the carboxyl terminus
As for B1, the “percent dye release (Calcein AM) after complement attack, Balb/3T3 cells” value in experiment [3] and in experiment [4] was around 3 fold each time.
